Publication PMC8263621, “A simple label-free electrochemical sensor for sensitive detection of alpha-fetoprotein based on specific aptamer immobilized platinum nanoparticles/carboxylated-graphene oxide”

Biological target: T1, alpha-fetoprotein (AFP) (UniProt P02771 19-609)
T1 sequence: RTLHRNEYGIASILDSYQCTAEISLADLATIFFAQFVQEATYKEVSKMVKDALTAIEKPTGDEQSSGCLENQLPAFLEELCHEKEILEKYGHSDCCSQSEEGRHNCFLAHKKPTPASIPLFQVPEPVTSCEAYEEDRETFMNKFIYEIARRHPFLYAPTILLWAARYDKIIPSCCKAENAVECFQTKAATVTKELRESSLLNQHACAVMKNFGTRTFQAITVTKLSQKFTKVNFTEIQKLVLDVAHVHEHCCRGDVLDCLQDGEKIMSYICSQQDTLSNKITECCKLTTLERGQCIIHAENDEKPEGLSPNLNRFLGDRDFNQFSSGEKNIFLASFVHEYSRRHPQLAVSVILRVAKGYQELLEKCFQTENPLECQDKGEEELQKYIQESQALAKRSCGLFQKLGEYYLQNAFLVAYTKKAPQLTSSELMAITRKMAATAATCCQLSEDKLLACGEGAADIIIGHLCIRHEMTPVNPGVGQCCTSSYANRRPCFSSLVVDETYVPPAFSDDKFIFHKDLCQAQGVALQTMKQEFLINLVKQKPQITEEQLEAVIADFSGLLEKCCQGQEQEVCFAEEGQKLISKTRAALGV
Assay: electrochemical aptasensor (CV/SWV); aptamer immobilized on PtNPs/GO-COOH/SPGE; 3 mM hydroquinone probe; LOD 1.22 ng/mL, linear 3-30 ng/mL (not a Kd); 10 mM PBS pH 7.4, 3 mM hydroquinone for readout; BSA-blocked electrode (0.25% w/v); AFP incubation 45 min at room temperature
Conditions: protein: commercial

B1: AFP aptamer (ssDNA)
DNA: GTGACGCTCCTAACGCTGACTCAGGTGCAGTTCTCGACTCGGTCTTGATGTGGGTCCTGTCCGTCCGAACCAATC
modifications: 5'-NH2
binding result: binds
